Data from doi:10.1101/2020.05.11.089458 (bioRxiv, 2020).

B1: YpTatB^22-220 (soluble cytoplasmic domain of Yersinia pseudotuberculosis TatB) (domain or fragment)
chain: PERLPVAVRTVSGWIRTLRSLAATVQNELAQELKLQELQDSLKKVEQAGLQNLTPELKASMDELKEAAEALKRSYHVDAGSEAPHTIHNPLVTEPEAIHDGVTPAEPATQVSALAQAPNILEAGTASVADSVVEAAPVTTVKSVVQGEVLVKSTPVQEVGLADVMDKPVTKQQIDTIDSHGTDLSSAGPSRIHQPGGDQ
B2: TatB^22-171 (soluble membrane-extrinsic cytoplasmic domain of E. coli TatB) (domain or fragment)
chain: PQRLPVAVKTVAGWIRALRSLATTVQNELTQELKLQEFQDSLKKVEKASLTNLTPELKASMDELRQAAESMKRSYVANDPEKASDEAHTIHNPVVKDNEAAHEGVTPAAAQTQASSPEQKPETTPEPVVKPAADAEPKTAAPSPSSSDKP

Molecular target: the molecule itself
Assay: SEC

Row | Protein | stoichiometry N
1 | B1 | 3
2 | B2 | 4
